The test system of this experiment is chimeric Caspase-9 polypeptide. Kind of experiment: Caspase-9 mutant classes and basal activity (Table 5). Type of experiment: cell-based. As to conditions: Caspase-9 mutant class; for Basal Activity: basal (ligand-independent) signaling compared with unmodified chimeric Caspase-9; for IC50: ligand IC50 compared with unmodified chimeric Caspase-9. The text has this: Even though homo-dimerization of wild-type initiator Caspase-9 is energetically unfavorable, making them mostly monomers in solution [14-16], the low-level inherent basal activity of unprocessed Caspase-9 [15, 17] is enhanced in the presence of the Apaf-1-based “apoptosome”, its natural allosteric regulator [6]. Moreover, supra-physiological expression levels and/or co-localization could lead to proximity-driven dimerization, further enhancing basal activation. The modified cells of the present application may comprise nucleic acids coding for a chimeric Caspase-9 polypeptide having lower basal signaling activity. Polynucleotides comprising Caspase-9 mutants with lower basal signaling may be expressed in the modified cells used for cell therapy herein. In these examples, the modified cells may include a safety switch, comprising a polynucleotide encoding a lower basal signaling chimeric Caspase-9 polypeptide. In the event of an adverse event following administration of the modified cells comprising the chimeric signaling polypeptides or chimeric antigen receptors herein, Caspase-9 activity may be induced by administering the dimerizer to the patient, thus inducing apoptosis and clearance of some, or all of the modified cells. In some examples, the amount of dimerizer administered may be determined as an amount designed to remove the highest amount, at least 80% or 90% of the modified cells. In other examples, the amount of dimerizer administered may be determined as an amount designed to remove only a portion of the modified cells, in order to alleviate negative symptoms or conditions, while leaving a sufficient amount of therapeutic modified cells in the patient, in order to continue therapy. Methods for using chimeric Caspase-9 polypeptides to induce apoptosis are discussed in PCT Application Number PCT/US2011/037381 by Malcolm K. Brenner et al., titled Methods for Inducing Selective Apoptosis, filed May 20, 2011, and in U.S. patent application Ser. No. 13/112,739 by Malcolm K. Brenner et al., titled Methods for Inducing Selective Apoptosis, filed May 20, 2011, issued Jul. 28, 2015 as U.S. Pat. No. 9,089,520. Chimeric caspase polypeptides having modified basal activity are discussed in PCT Application Serial Number PCT/US2014/022004 by David Spencer et al., titled Modified Caspase Polypeptides and Uses Thereof, filed Mar. 7, 2014, published Oct. 9, 2014 as WO2014/164348, and in U.S. patent application Ser. No. 13/792,135 by David Spencer et al., titled Modified Caspase Polypeptides and Uses Thereof, filed Mar. 7, 2014; and in U.S. patent application Ser. No. 14/640,553 by Spencer et al., filed Mar. 6, 2015. Methods for inducing partial apoptosis of the therapeutic modified cells are discussed in PCT Application Number PCT/US14/040964 by Kevin Slawin et al., titled Methods for Inducing Partial Apoptosis Using Caspase Polypeptides, filed Jun. 4, 2014, published Dec. 11, 2014 as WO2014/197638, and in U.S. patent application Ser. No. 14/296,404 by Kevin Slawin et al., titled Methods for Inducing Partial Apoptosis Using Caspase Polypeptides, filed Jun. 4, 2014. These patent applications and publications are all incorporated by reference herein in their entireties.
Chain of chimeric Caspase-9 polypeptide (P62942 2-108 F37V limits assumed): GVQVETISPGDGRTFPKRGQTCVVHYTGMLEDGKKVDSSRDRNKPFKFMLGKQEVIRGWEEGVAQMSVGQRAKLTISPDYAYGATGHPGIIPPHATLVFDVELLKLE

The record followed here is US20210147507A1, “METHODS TO AUGMENT OR ALTER SIGNAL TRANSDUCTION” (Bellicum Pharmaceuticals, Inc., priority 2017, published 2021).

Changes are numbered by the printed parent chain. Names and notes keep the numbering of the source.

B1: N405Qco (protein, UniProt P55211 1-416, looked up, variant N405Q)
chain: MDEADRRLLRRCRLRLVEELQVDQLWDALLSRELFRPHMIEDIQRAGSGSRRDQARQLIIDLETRGSQALPLFISCLEDTGQDMLASFLRTNRQAAKLSKPTLENLTPVVLRPEIRKPEVLRPETPRPVDIGSGGFGDVGALESLRGNADLAYILSMEPCGHCLIINNVNFCRESGLRTRTGSNIDCEKLRRRFSSLHFMVEVKGDLTAKKMVLALLELAQQDHGALDCCVVVILSHGCQASHLQFPGAVYGTDGCPVSVEKIVNIFNGTSCPSLGGKPKLFFIQACGGEQKDHGFEVASTSPEDESPGSNPEPDATPFQEGLRTFDQLDAISSLPTPSDIFVSYSTFPGFVSWRDPKSGSWYVETLDDIFEQWAHSEDLQSLLLRVANAVSVKGIYKQMPGCFQFLRKKLFFKTS
modifications: codon-optimized; in iC9 construct
Regarding B1, the “Basal Activity” value is listed as “Decreased” and the IC50 entry is given as “higher IC50”.

B2: 316ATPF^319AVPI (SMAC/Diablo) (protein, UniProt P55211 1-416, looked up, variant T317V F319I)
chain: B1 chain with T317V, F319I, Q405N
In the case of B2, the “Basal Activity” value is reported as “Similar” and the IC50 result was “Similar”.

B3: D330A (protein)
chain: GFGDVGALESLRGNADLAYILSMEPCGHCLIINNVNFCRESGLRTRTGSNIDCEKLRRRFSSLHFMVEVKGDLTAKKMVLALLELARQDHGALDCCVVVILSHGCQASHLQFPGAVYGTDGCPVSVEKIVNIFNGTSCPSLGGKPKLFFIQACGGEQKDHGFEVASTSPEDESPGSNPEPDATPFQEGLRTFDQLAAISSLPTPSDIFVSYSTFPGFVSWRDPKSGSWYVETLDDIFEQWAHSEDLQSLLLRVANAVSVKGIYKQMPGCFNFLRKKLFFKTSASRA
As to B3, the “Basal Activity” value is “Decreased” and the IC50 entry is given as “higher IC50”.

B4: N405F (protein)
chain: B3 chain with A196D, N271F
As for B4, the “Basal Activity” value is “Decreased” and the IC50 entry is listed as “much higher”.

B5: A316G (protein)
chain: B3 chain with A182G, A196D
Take B5: the “Basal Activity” value was “Decreased” and the IC50 entry is given as “much higher”.

B6: L329K (protein)
chain: B3 chain with L195K, A196D
For the molecule B6, the “Basal Activity” value is listed as “Increased”.

B7: T317E (protein)
chain: B3 chain with T183E, A196D
In the case of B7, the “Basal Activity” value was “Increased”.

B8: F319A (protein)
chain: B3 chain with F185A, A196D
As for B8, the “Basal Activity” value is “Similar” and the IC50 result is given as “Similar”.

B9: F404T (protein)
chain: B3 chain with A196D, F270T
With B9, the “Basal Activity” value is reported as “Decreased” and the IC50 result is “much higher”.

B10: D330E (protein)
chain: B3 chain with A196E
On to B10, for which the “Basal Activity” value is given as “Decreased” and the IC50 result is given as “higher IC50”.

B11: N405T (protein)
chain: B3 chain with A196D, N271T
With B11, the “Basal Activity” value is “Increased”.

B12: Y153A (protein)
chain: B3 chain with Y19A, A196D
Consider B12, for which the “Basal Activity” value is “Decreased” and the IC50 result is “much higher”.

B13: A331K (protein)
chain: B3 chain with A196D, A197K
Consider B13, for which the “Basal Activity” value was “Increased”.

B14: C403A (protein)
chain: B3 chain with A196D, C269A
As for B14, the “Basal Activity” value is listed as “Similar” and the IC50 result is listed as “Similar”.

B15: T317C (protein)
chain: B3 chain with T183C, A196D
As for B15, the “Basal Activity” value was “Similar” and the IC50 entry is reported as “Similar”.

B16: Y153F (protein)
chain: B3 chain with Y19F, A196D
As to B16, the “Basal Activity” value was “Decreased” and the IC50 result is listed as “much higher”.

B17: D315A (protein)
chain: B3 chain with D181A, A196D
On to B17, for which the “Basal Activity” value is on record as “Decreased” and the IC50 result is “much higher”.

B18: N405A (protein)
chain: B3 chain with A196D, N271A
On to B18, for which the “Basal Activity” value is “Similar” and the IC50 entry is recorded as “Similar”.

B19: F404W (protein)
chain: B3 chain with A196D, F270W
In the case of B19, the “Basal Activity” value is given as “Decreased” and the IC50 result is given as “much higher”.

B20: S307A (protein)
chain: B3 chain with S173A, A196D
Consider B20, for which the “Basal Activity” value is “Decreased” and the IC50 result is “much higher”.

B21: F406T (protein)
chain: B3 chain with A196D, F272T
Consider B21, for which the “Basal Activity” value is recorded as “Decreased” and the IC50 entry is given as “much higher”.

B22: C403S (protein)
chain: B3 chain with A196D, C269S
In the case of B22, the “Basal Activity” value was “Similar” and the IC50 entry was “Similar”.

B23: P318A (protein)
chain: B3 chain with P184A, A196D
With B23, the “Basal Activity” value is “Similar” and the IC50 result was “Similar”.

B24: C403T (protein)
chain: B3 chain with A196D, C269T
As to B24, the “Basal Activity” value is “Similar” and the IC50 result is reported as “Similar”.

B25: F319W (protein)
chain: B3 chain with F185W, A196D
Take B25: the “Basal Activity” value is reported as “Decreased” and the IC50 result is “much higher”.

B26: D330A-N405T (protein)
chain: B3 chain with N271T
Consider B26, for which the “Basal Activity” value was “Increased”.
